Source: the supplement of paper PMC10567573

B1: SLC35F2 (parent)
chain: FVAFALCMFCLYSFMPLVIKVTSA
B2: CHMP4C (parent)
chain: SSKSRAAPSPQEALVRLRETEEML

Variants of: B1
Assay: protein stability index of a GFP-peptide fusion (GPS, HEK-293T) (PSI 1-6); higher = more stable
Details: c terminus: a fixed tail appended
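Further: lentivirally expressed fusions sorted by FACS into six bins by GFP to DsRed ratio, PSI derived from sequencing read proportions per bin multiplied by bin number.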

Row | Variant | protein stability index
1 | V18L | 2.65
2 | V18I | 2.35
3 | V18F | 2.85
4 | V18M | 2.51
5 | V18A | 2.91
6 | V18P | 3.36
7 | V18G | 3.68
8 | V18H | 2.9
9 | V18D | 3.27
10 | V18C | 3.04
11 | V18N | 3.17
12 | V18Q | 4.26
13 | V18E | 2.87
14 | V18K | 2.63
15 | F14P | 2.46
16 | F14Q | 2.31
17 | F14W | 3.16
18 | F14D | 3.53
19 | F14C | 2.43
20 | F14G | 3.38
21 | F14Y | 2.41
22 | F14N | 2.27
23 | F14I | 3.99
24 | F14R | 3.4
25 | F14L | 3.56

Row | Variant | protein stability index
26 | F14V | 3.79
27 | F14S | 3.81
28 | F14M | 2.52
29 | F14A | 2.78
30 | F14T | 2.91
31 | F14K | 2.77
32 | F14H | 3.63
33 | F14E | 2.86
34 | A3T | 2.21
35 | A3P | 1.98
36 | A3I | 2.84
37 | A3H | 2.44
38 | A3S | 2.81
39 | A3W | 2.55
40 | A3M | 2.65
41 | A3F | 2.64
42 | A3L | 2.38
43 | A3V | 3.02
44 | A3D | 2.37
45 | A3R | 3.31
46 | A3E | 2.62
47 | A3K | 2.42
48 | A3Y | 3.12
49 | A3N | 2.43
50 | A3C | 2.05

Row | Variant | protein stability index
51 | L11H | 2.99
52 | L11T | 2.43
53 | L11I | 3.19
54 | L11Q | 3.66
55 | L11F | 2.21
56 | L11P | 1.84
57 | L11D | 3.52
58 | L11K | 3.17
59 | L11R | 2.85
60 | L11W | 2.44
61 | L11E | 4.11
62 | L11V | 3
63 | L11A | 3.07
64 | L11G | 2.39
65 | L11N | 3.45
66 | L11Y | 2.67
67 | L11S | 4.04
68 | L11C | 3.54
69 | L17H | 2.77
70 | L17M | 3.65
71 | L17T | 2.34
72 | L17I | 2.03
73 | L17W | 2.18
74 | L17N | 1.58
75 | L17K | 4.14

Row | Variant | protein stability index
76 | L17Y | 3.6
77 | L17E | 2.38
78 | L17R | 2.36
79 | L17C | 1.91
80 | L17V | 3.13
81 | L17A | 2.46
82 | L17F | 2.35
83 | L17Q | 3.99
84 | L17P | 2.71
85 | L17G | 2.43
86 | L17D | 2.8
87 | A5W | 3.11
88 | A5N | 1.4
89 | A5D | 3.05
90 | A5L | 2.47
91 | A5P | 2.62
92 | A5I | 3.68
93 | A5F | 1.59
94 | A5K | 2.58
95 | A5S | 3.44
96 | A5M | 2.38
97 | A5R | 2.84
98 | A5E | 2.48
99 | A5C | 2.67
100 | A5V | 2.75

Row | Variant | protein stability index
101 | A5Y | 2.58
102 | A5H | 2.52
103 | F4I | 2.65
104 | F4G | 2.87
105 | F4P | 4.46
106 | F4W | 3.22
107 | F4V | 3.37
108 | F4K | 2.01
109 | F4D | 4.88
110 | F4L | 4.33
111 | F4Y | 2.33
112 | F4H | 2.26
113 | F4A | 2.54
114 | F4N | 4.39
115 | F4T | 3.63
116 | F4C | 2.52
117 | F4E | 3.18
118 | F4Q | 2.23
119 | F4M | 2.64
120 | F4R | 3.58
121 | L6C | 2.33
122 | L6Y | 3.21
123 | L6P | 2.79
124 | L6F | 2.84
125 | L6K | 2.38

Row | Variant | protein stability index
126 | L6D | 3.24
127 | L6S | 3.91
128 | L6T | 2.16
129 | L6N | 3.13
130 | L6G | 2.14
131 | L6H | 3.22
132 | L6W | 3.52
133 | L6V | 2.13
134 | L6E | 2.43
135 | L6I | 2.5
136 | L6A | 2.8
137 | L6Q | 3.48
138 | S13I | 3.95
139 | S13M | 2.54
140 | S13G | 3.42
141 | S13F | 2.8
142 | S13L | 3.22
143 | S13E | 3.17
144 | S13N | 3.33
145 | S13C | 2.62
146 | S13Y | 2.33
147 | S13V | 3.39
148 | S13Q | 2.36
149 | S13T | 2.97
150 | S13D | 4.24

Row | Variant | protein stability index
151 | S13K | 3.34
152 | S13R | 3.03
153 | S13A | 2.08
154 | S13P | 2.15
155 | S13H | 3.26
156 | S13W | 2.54
157 | F9R | 3.23
158 | F9S | 2.61
159 | F9D | 3.1
160 | F9G | 1.76
161 | F9V | 2.56
162 | F9E | 3.49
163 | F9Q | 2.59
164 | F9W | 2.68
165 | F9A | 2.62
166 | F9N | 2.31
167 | F9M | 3.23
168 | F9L | 2.07
169 | F9K | 3.39
170 | F9C | 2.94
171 | F9Y | 2.79
172 | F9P | 2.44
173 | C7F | 2.43
174 | C7P | 1.95
175 | C7R | 3.23

Row | Variant | protein stability index
176 | C7D | 3.08
177 | C7W | 2.19
178 | C7H | 3.27
179 | C7I | 2.35
180 | C7S | 3.35
181 | C7Q | 3.11
182 | C7V | 3.59
183 | C7A | 2.45
184 | C7E | 2.19
185 | C7K | 2.46
186 | C7L | 2.99
187 | C7T | 2.6
188 | C7N | 4.12
189 | C7Y | 2.85
190 | C7M | 3.58
191 | Y12M | 2.75
192 | Y12L | 2.5
193 | Y12Q | 3.48
194 | Y12I | 2.31
195 | Y12V | 2.74
196 | Y12G | 3.85
197 | Y12D | 1.79
198 | Y12W | 2.76
199 | Y12K | 2.74
200 | Y12P | 2.25

Row | Variant | protein stability index
201 | Y12R | 2.29
202 | Y12S | 3.08
203 | Y12E | 3.32
204 | Y12H | 2.47
205 | Y12F | 2.54
206 | Y12T | 2.68
207 | Y12N | 3.2
208 | Y12A | 3.98
209 | Y12C | 2.32
210 | V2A | 2.72
211 | V2L | 3.45
212 | V2E | 2.27
213 | V2W | 2.44
214 | V2D | 2.14
215 | V2K | 2.97
216 | V2I | 4.37
217 | V2N | 3.7
218 | V2C | 2.5
219 | V2F | 2.7
220 | V2R | 2.37
221 | V2Q | 2.65
222 | V2G | 3.29
223 | V2S | 2.71
224 | V2T | 4.03
225 | V2P | 3.21

Row | Variant | protein stability index
226 | C10G | 2.58
227 | C10R | 3.21
228 | C10V | 3.48
229 | C10S | 3.53
230 | C10H | 2.75
231 | C10F | 3.07
232 | C10Y | 2.28
233 | C10N | 2.8
234 | C10E | 3.49
235 | C10D | 3.05
236 | C10T | 2.52
237 | C10Q | 3.47
238 | C10P | 2.35
239 | C10L | 2.43
240 | C10K | 2.52
241 | C10A | 2.18
242 | C10I | 2.27
243 | C10W | 2.35
244 | C10M | 2.88
245 | F1N | 3.06
246 | F1R | 4.03
247 | F1G | 3.04
248 | F1A | 2.36
249 | F1W | 2.65
250 | F1M | 2.59

Row | Variant | protein stability index
251 | F1I | 3.76
252 | F1C | 2.46
253 | F1L | 3.61
254 | F1H | 3.02
255 | F1V | 2.51
256 | F1Q | 3.03
257 | F1T | 2.5
258 | F1P | 2.61
259 | F1Y | 2.99
260 | F1D | 2.71
261 | F1E | 3.64
262 | F1K | 2.5
263 | M8W | 3.65
264 | M8S | 3.3
265 | M8R | 3.49
266 | M8C | 2.4
267 | M8P | 2.4
268 | M8Y | 3.31
269 | M8L | 2.67
270 | M8I | 2.88
271 | M8H | 2.8
272 | M8A | 3.8
273 | M8D | 2.12
274 | M8G | 1.97
275 | M8F | 2.67

Row | Variant | protein stability index
276 | M8K | 2.51
277 | M8N | 3.69
278 | M8Q | 2.57
279 | M8V | 3.38
280 | M8E | 3.62
281 | M8T | 2.72
282 | P16D | 2.99
283 | P16W | 2.66
284 | P16R | 2.79
285 | P16G | 2.85
286 | P16Y | 4.47
287 | P16A | 3.6
288 | P16T | 2.05
289 | P16Q | 2.65
290 | P16H | 3.01
291 | P16V | 1.69
292 | P16C | 3.1
293 | P16N | 3.51
294 | P16F | 2.59
295 | P16M | 1.92
296 | P16I | 2.99
297 | P16L | 2.86
298 | P16S | 3.48
299 | P16E | 1.85
300 | P16K | 2.06

Row | Variant | protein stability index
301 | M15W | 2.1
302 | M15N | 3.43
303 | M15L | 3.33
304 | M15Q | 3.41
305 | M15V | 2.71
306 | M15D | 3.13
307 | M15E | 2.25
308 | M15R | 2.98
309 | M15C | 3.39
310 | M15S | 2.61
311 | M15F | 3.1
312 | M15T | 2.83
313 | M15G | 2.42
314 | M15K | 3.67
315 | M15H | 2.97
316 | M15P | 4.92
317 | M15Y | 3.23
318 | M15I | 3.14

Variants of: B2
Assay: as above
Details: c terminus: a fixed tail appended

Row | Variant | protein stability index
319 | R16G | 3.79
320 | R16W | 2.45
321 | S9D | 1.51
322 | L14I | 2.32
323 | L14D | 4.96
324 | L14C | 2.06
325 | M23Q | 2.38
326 | M23W | 1.55
327 | M23T | 3.55
328 | S1N | 2.38
329 | P8L | 2.46
330 | L24H | 4.37
331 | L24W | 3.92
332 | V15P | 4.34
333 | V15Q | 3.07
334 | A13Q | 4.8
